Data from IntAct's records for PubMed 16777958.

Biological target: ack1_mouse Tnk2 (UniProt O54967)
Sequence (O54967 whole entry): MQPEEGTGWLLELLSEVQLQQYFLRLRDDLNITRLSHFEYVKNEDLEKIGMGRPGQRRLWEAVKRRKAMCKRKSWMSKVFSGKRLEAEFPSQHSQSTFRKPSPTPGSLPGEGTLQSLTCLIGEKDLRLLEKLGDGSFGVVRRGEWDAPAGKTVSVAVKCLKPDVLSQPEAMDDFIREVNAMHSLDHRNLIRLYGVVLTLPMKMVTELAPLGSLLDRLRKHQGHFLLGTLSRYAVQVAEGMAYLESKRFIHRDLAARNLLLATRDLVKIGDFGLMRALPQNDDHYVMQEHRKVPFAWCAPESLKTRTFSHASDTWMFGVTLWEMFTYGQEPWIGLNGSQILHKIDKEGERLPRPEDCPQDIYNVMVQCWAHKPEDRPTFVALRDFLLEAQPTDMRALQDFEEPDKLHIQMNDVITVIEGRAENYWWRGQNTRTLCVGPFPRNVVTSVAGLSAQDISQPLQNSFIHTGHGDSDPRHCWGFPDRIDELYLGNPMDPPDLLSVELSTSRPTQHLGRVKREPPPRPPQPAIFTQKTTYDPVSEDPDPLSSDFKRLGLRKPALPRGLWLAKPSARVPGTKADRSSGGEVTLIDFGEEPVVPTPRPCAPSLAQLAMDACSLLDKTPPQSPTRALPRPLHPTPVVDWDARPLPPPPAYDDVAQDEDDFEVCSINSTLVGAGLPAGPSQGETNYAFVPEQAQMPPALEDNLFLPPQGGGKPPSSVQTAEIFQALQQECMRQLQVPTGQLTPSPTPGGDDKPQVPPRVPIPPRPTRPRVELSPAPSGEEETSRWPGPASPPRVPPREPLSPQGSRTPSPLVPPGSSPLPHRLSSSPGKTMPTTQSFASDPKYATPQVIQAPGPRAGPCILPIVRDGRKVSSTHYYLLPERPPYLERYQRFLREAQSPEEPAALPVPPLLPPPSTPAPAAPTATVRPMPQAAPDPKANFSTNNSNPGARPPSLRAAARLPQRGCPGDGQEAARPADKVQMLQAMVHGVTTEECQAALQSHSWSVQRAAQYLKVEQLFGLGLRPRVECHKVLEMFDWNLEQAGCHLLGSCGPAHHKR

- effect of a mutation on the interaction: disrupting interaction strength
Substance: SH2/SH3 adapter protein NCK1 (Homo sapiens) (from UniProt P16333-1) R308A
